From the DeepSol protein solubility set come the findings set out here.

The data set is described as follows: soluble on expression in E. coli; label from the status in PepcDB or PDB records.
On to “GPGSMAHEHGNEFAGPGGGNGGNGGNVMLQCVKQHTDLSHIEDLGSQISAGAGCCGFSREAHGKRGQDLWLQLPLGTQVVDMDTNEVQYDMDEEGMQIVLLEGGQGGKGNAAFANKWHHSPIESTKGLPGNTMLAQIELKTIADCGLIGYPNAGKSSLLSAISASKPTIAPYAFTTLRPYVGVLHDLYGNVCRVADIPGLIEGAYENRGLGHQFLRHVERTKCLALVVDMCNTYVPDTGLRNSSEVLQPWDVVELLLQELEYYLPGMSQRVIMTFANKMDIEKDSTGTATQVKLSELKRRVSMPVFPISAALGIHLGPQHEQTGLAPALQFMCGEVFARQSQEREMRQFRFSHERAQLERAFRAKHNGVFLPQVHALGAHGAEASQDLDDEAADRGGSLVDQQLDFLGNSGLGVKFDAYENSAARGQLHRYRDLTMKGKYWNLTRQDGEVMKGEKWS”, for which the “soluble on expression in E. coli” value is on record as “not soluble”.

With “MGSDKIHHHHHHMKKHLNTLFVTTQGAYLSKEGETVVVKVDREVRLRVPVHTLGGIVCFGNIGCSPYLMGFCAEKSVCISFLSERGRFLARVQGPVSGNVLLRREQYRRADDPEFSAIMARYVLTGKIANCRTVLQRALRDHQEKINADSVRQAVDHLGRCLTSLGREKSLDNLRGIEGDAAHRYFSVFNELILMQKDAFIFDERNRRPPLDPMNCLLSFAYTLLVHDIRSALEAVGLDPAVGYLHRDRPGRPGLALDIMEEFRPFIVDRLVLSLVNLRKVQAKGFKKSESGAVQMDDDTRRTLLVSYQERKQEEMLHPFLGERTTFGLLFHVQAMLLARYLRGDLDGYPPFIYR”, the “soluble on expression in E. coli” value is on record as “not soluble”. With “MSLMHTRYFTPSAQWIVQQLWPETLRFAKIEYLYPFKLRLSGVQIASEPTIELQQMDLWLNPYGLLEQQLEIDSVLIDGANLAHGLPNFTLPESVHLNQLALHNIDWADQGIIARGVSLQIKQPVWDSPQQQLPYGKIQLAADQITIDGEAFNQVLVDANYQAQDSTVYGFSFNWRNSPISGQAEQYPQGWSLINVTLSRLNLNLDEWRHHSLWQTIAPSIYHINSLDLLNSQLTLNGVAWENLNLSVEDYDLRHSLWQQQQAYLSLNADSAQWLATQWVEPSAELTLTPQGIELDGHSQVWQGDVQVKGHITETSLNLAQLTITGVKWIAEQPQDLLPFSQPLPAWQNLQIEHLDINNLQMIQTVNRPFWQASGLNADGKNLQWVKESQWGFWQGQLSVTANSASYAGVLSTQGVLNMRSEQGVWQLTRAFLPLERGYVEAHAKWDLTSLSAPWQLSLDADSLPIGPLQSWFKLPFGLEALADISLTAQGIAGDRTMLAHSLDGQLQLNLRQGLLSLRSDNTLIIQPFELDDLAVSADRGRITITPTPLRGPNLNAQLGGSTDLLEPEQGQWQLTIQQAWADQCLGLSWDFQQAELVSQDCRSAPEGHHHHHH”, the “soluble on expression in E. coli” value is given as “soluble”. Turning to “MESHENPGMFSRLLRLFHRENGDQGETRPRQKEFGILSYEKGRMKSFWGRHVSAGKTSSQSCNITNHMKNMNKLEDMKFYIRKINAEREELFRILDIDMNTDLNYSIRHTHLLKKCNQLKKKVRMLLNENRKLLVEQADQEASFGEEKSSVMRPARTYIPSAKQQQV”, the “soluble on expression in E. coli” value is “not soluble”. As for “YFQSMEAEDFECSSHCSELSWRQNEQRRQGLFCDITLCFGGAGGREFRAHRSVLAAATEYFTPLLSGQFSESRSGRVEMRKWSSEPGPEPDTVEAVIEYMYTGRIRVSTGSVHEVLELADRFLLIRLKEFCGEFLKKKLHLSNCVAIHSLAHMYTLSQLALKAADMIRRNFHKVIQDEEFYTLPFHLIRDWLSDLEITVDSEEVLFETVLKWVQRNAEERERYFEELFKLLRLSQMKPTYLTRHVKPERLVANNEVCVKLVADAVERHALRAENIQSGT”, the “soluble on expression in E. coli” value is “soluble”.

For “GSRPATPPVTPPSREGHVADLDRFPQDLRVYAMKAGADRQLLPFTEQAAQDARWNRRFFAPWRMTRISVPVKDVAAPFGTDGRPRGYAENLLPWDVTRWGALASGAALDLYPSQAWKGIVVSNSALREVPTLRPMFTAPTRAGQGYPFDMFQRTAVWMGTPVFVGHATADRAWLYVETAFAAGWMPAADVARVDDAFMTRYESGSLAAILRDDTSLNGADGTHLATAHIGTVLPLSGASQVGRTVLVPVRAPEGHAVVVPVLLTSGEAAQKPVPLTPGNMAELGNRMMGQPYGWGGLYEDRDCSSTLRDLFTPFGLWLPRNSASQAKAGRYVDIAKLDADDKEARIVAEGVPFMTLLWLRGHITLYLGLHEGQAAMFHNMWGIRTHRGGVEGRYVLGRAVVTSTRPGLDVPGNDNADGLLGRMQGMSILPGGAQ”, the “soluble on expression in E. coli” value is “soluble”. Consider “MREKIDALTQNLNRTIVGKTEAIRLVLVALIGGGHALLEDVPGVGKTLLAKSLARSLDGTFQRLQCTPDLLPTDITGTNIWNPKSGEFSFMPGPVFANVVLADEINRATPRTQSALLEVMEEQQVTVDGVSRTVPHPFFVIATQNPVEYQGTFPLPEAQMDRFMLSLSLGYPGVDEELEMLQNLQHGIKVGDLQPCLTLAEVAELRDICSQVKVETVLQQYILELVRATRQDEEITLGVSPRGTVALHKATQALAFLLGRDYAIPDDVKFLAPHVLCHRLIPRGGRSARSIVDRLLRSLPIPLEHHHHHH”, for which the “soluble on expression in E. coli” value is listed as “soluble”. Regarding “MGSDKIHHHHHHMKFTINRTLFIEKLEKASATVDVKNPMPALQGVLLDCNSKGMILMGSDGTETVTLVTRFNVNSGDCTEPGKVLFAAAPVLKTIKKFKSEFIGLEHKNNELKIVESKKKQFSFCTMDHEEYPEIKIEAGEDWISLSQEQFVSMANGTLHAIPAMDTRKILTGVNLKSVDDKFFSIATDAHRLARLHFDCTKITIAKDGEVVLPIKSLKTALKLFNRETNLQLKLISDTQLLIRGESIIYQSRLLAGTYPDTARMVPDEFKSEIQLSREEFKNTLEQLSAFSSLIVLTSEGKESIHLKPQNSQVGTASVEIPCNQVEAFTLACNVEYLLQALQTITSETIAIKMISNQRPIVVVGAEDTTHSNLQLILPVRV”, the “soluble on expression in E. coli” value was “not soluble”. Take “MAHHHHHHMVFHLNIFNKGKRQNLVSAYLNHFKKSYFSGVTSGSDCVNKSEVSSDNNNNNNNNNNKIAHNFFSKKYQRNFENNNLSENQENNKNIIYSGSNIFKNIYNTEMMSNNNTVDVNMMDNNPAARLEELRTIMKKNKIDVYILINSDEHNSEIINEKDKKIVKITNYSGADGILIVTKDKPILYVNALYELQAMNELDQNLFTLRISRIDNRDEIFETISSLEFNTIAFDGKNTSVVFYEKLRKALLNAYPKKKIVEKIIYNNNFDDVNKKDDENVLNFLVLEKSLVEIKDYPVNNKTLYIHDRKYNGACAGEKIDKLKQSLMYDIKNVDNLLLSELDEIAYLLNLRGYDYQYSPLFYSYLLFQFDREEQDFSKIVFFTTVKNLPADVKNLLEINKVIVKEYEEIVPYLRDVVIPSIPKHNDDNPDFKKYDISLSPYINLMIYKLFDRKNVLLQNSPVVKMKAVKNDVEIDNMKQAHILDGLALLQFFHWCEQKRKTKELFNETEMSLRHKVDYFRSTKKNFIFPSFSTISASGPNAAVIHYECTDKTNATIKPAIYLLDSGGQYLHGTTDVTRTTHFGEPTAEEKRIYTLVLKGHLRLRKVIFASYTNSSALDFIARENLFNNFMDYNHGTGHGVGLTLNVHEGGCSIGPVGGAPLKKNMVLSNEPGYYMKDKFGVRIENMQYVISKEITDTTEYLSFDDLTMYPYEK”: the “soluble on expression in E. coli” value is given as “not soluble”. In the case of “MKIMCKQEYYNQVVQYAESIKDTSLQNCMERLEAWEKNPDRPCEIELYHDWAPYSFGFTQRYPDGSRGIVGGLLYHGSPDESFAVQLTPFKGWQIHT”, the “soluble on expression in E. coli” value is listed as “not soluble”.

For the sequence “MGSDKIHHHHHHMTNIGETIHQIRLSKGLTQQEVYSGIISRSFASRFESGANDIGASKLFAILDNLAISADELRFIHQNYQPSAYDQALWTIRHAYETLNFPALATWIREHRHSPHAYEQLIASYASILMLSYDHRSIGITTTTQPAFDHLRQAKTWTLQELKLVPVLIPIIASIDGLAALTPLTTRMAANCASYQTAWGDPFHVSNDLLDFYGSLFQTKLNFHDFQSAQNLKTKFTAIDSHQLNWDGRLSQQFWLGIWNLYFGDWQIGNQLLDEVSVLETHHHPRIDNTLFAIRNVRTKQAQTYRQSHQSHKHL”, the “soluble on expression in E. coli” value was “not soluble”.

Regarding “MGSDKIHHHHHHMKVLNKPLEGVKVIDLTYFVAGPGTSKILADWGADVIKVEPSFGDPGRKTGATMTMPIDDYNNPFYSTYNSNKRGLSINLKSETGIEIMDKLLSEANVFVSSYRTGALKRLGLDYESLSKKHPHLIWGQINGFGDFGPAKDNAGFDTVAFWARSGAMLDIAEKDTSPINPPIAFGDATTSCSLSGGICAALYQQAKTGKGQKVMASLFGQAIWNASSLLASTQFSDEYPKTRKNAISPVINSYRCKDGKWIFLSILEHERYFEALCRLFGREDLIKEEKFASSVESKKNATELINILDGEFAKFTQNEMVEKLTAADIAHEKIQHVNDVVTDEQAIANNYIYEHTSKNGNKTMLASTPVKFGNIEVNMTCDAPLIGEHSDEILRELGYSDSDIEALIESGIVTMNKEACEIC”, the “soluble on expression in E. coli” value was “not soluble”. For “MSLSEVQPIPVTVSQYSYYSDKNYPKRRTMEDAHVICDPLIEVEGRVYSLYAIFDGHRGRTAAQHCAKIVKDKIKEVLQRKDEGFEEMMQDAMYEMDMSLKENGIEYSGCCALMCIIEIKDKKRIIHMANCGDSCGIIIGTNEVIPMSEEHKATNENEAKRIKESGGMIINGRVSGDVAVTRGLGDHHLKQWVVSEPFVKEVEWQEDYKYIVLGCDGLWDTLNGNQIKEVLESNNCEFTSSAKSLTQLAIGKGSTDNITTIVLKLEGHHHHHH” the value was “soluble”.

Take “MSLSGKPITDQQIRLYVNERKQGQTQLAASAKSGLSERSGRRIDSGELNTEPTPKRQWRTRKDPLAEVWSSVLVPMLEANPELLPLTLFEYLHDNYPNQYDNTVLRTLQRRVKAWKVKHGPAKEVMFRQTKVPGRLGLSDFTLLKGVTITILGQVFCHLLYHYRLAFSGWTYAKVICGGESYTALSTGLQNALWRSGGAPLEHRTDSLSAAFNNLAEKEQMTVRYDALCHHYQLKGSRNNPGKSHENGTIEAAHGHLKRRMTQALLLRGDTDFTSLEAYQAFVDGIVTKINQQCRTRFEQERPLLQTLPKRRTHDYAEHSVLISSSSSFDLKRVTYTVPSRFIGERLYVQLYDERLDLFSGHEQIMSLPRVYATTTQRGRSVDYRHVIDSLVKKPGAFRYSQLRDDLLPTPDYHRIWQYVDGTLNPHDACRYIVRLLHLAATAQCQDSLGRYVLKSIEGGELPSNLQCNKRFSTDTAVIPLITAKQHLLADYDQLLCVEVQHGEGHHHHHH”: the “soluble on expression in E. coli” value is listed as “not soluble”. As to “MQTSAQKVIQDLTNRVQAEKEELEQLERERDLWKYNAQMNDKEALRGNERKKNIMKKGGPLCYFCNKNHVPSLCRTYPDGISRQKSLENQGKCIKCLKIGHQNGDNFCEKHHIVCRTCQQSHVKAVCPILYPKKDTPPKILRARRRSLIRAQKKKDFQEPENKHEQLTSTKAPCQENWSDF”, the “soluble on expression in E. coli” value was “not soluble”.

Turning to “MGAIEDVYADLDTDVSIEEFREAVESKVEQMGGLADEETAAMLIAHEIDDGEVNGVADIDSEMDEVKFIAKVTRVGDVRTFDREDADDDDAAAEGRVVNVTVADETDDVRVSLWDEQATAAADDLAPGDVLRIKGRPTDGYNGLEVSADEVELDADEQIDVQIQDEYDAADLSLGVSDVTLVGEVLDTEAVRTFDRDDGSEGRVSNLVVGDETGRVRVTLWDDQADTATDLDAGAVVEIVDGYVREREGSLELHVGDTGAVTPVPDADVSFVPDTTSIDSLEQDDTADIAGVVRSVDPTRTFDRDDGSEGQVRNVRLQDDTGDIRVALWGEKADLDIGPGDEVAALDVEIQDGWQDDIEASAGWQASVIPLSDSTQDDAAAGSDGPDRGLAAFGADSDDEPAATDDAADTQTPHSDTPVEFTGVVVQAQDPLILDDGEETMSVTTDADVTLGQEVTVRGSLDDGRLHADDVTESLEHHHHHH”, the “soluble on expression in E. coli” value is on record as “not soluble”.
